Biological target: normal MITF (M type), expressed from plasmid pSU063 (MITF-M/pCDNA3) in COS7 cells (UniProt Q08874)
Assay: cell-based or functional assay

UniProt Q08874, sequence (Q08874 other isoform, or with tags, fused parts or gaps limits assumed): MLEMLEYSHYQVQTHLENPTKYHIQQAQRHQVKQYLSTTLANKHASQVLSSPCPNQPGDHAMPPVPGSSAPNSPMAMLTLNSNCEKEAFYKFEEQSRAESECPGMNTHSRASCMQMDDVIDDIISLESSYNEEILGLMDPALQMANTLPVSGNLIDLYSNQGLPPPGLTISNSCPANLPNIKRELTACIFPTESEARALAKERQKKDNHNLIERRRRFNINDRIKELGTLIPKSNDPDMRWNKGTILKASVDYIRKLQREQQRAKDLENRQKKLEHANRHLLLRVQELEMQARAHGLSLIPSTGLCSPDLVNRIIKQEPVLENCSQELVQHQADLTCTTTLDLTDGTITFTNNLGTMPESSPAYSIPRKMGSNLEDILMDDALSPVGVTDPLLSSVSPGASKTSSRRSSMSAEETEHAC

Row | Substance | Luciferase activity (c-kit promoter R-luc reporter in COS7 cells, PBS addition taken as 1) (relative to PBS = 1)
1 | His Tag-PTD-mi variant of MITF (from UniProt Q08874 119-526) | 0.92
2 | His Tag-PTD-wh variant of MITF (from UniProt Q08874 119-526) | 0.72
